For four molecules, EC50 results are on record in patent US20250182853A1 (TOHOKU UNIVERSITY, published 2025).

In general, EC50 refers to the concentration needed to bring the measured effect to its halfway point. Read a low EC50 as greater potency.

B1: 1E2 mutant (2u2f mutant from Cluster 1) (designed binder)
chain: AHKLFIGGLPVDYNDDQVKELLTSFGPLKAFNLVKDSATGLSKGYAFAEYVDINVTDQAIAGLNGNVCHLHTLLVQRASVGAKNADYKDDDDKLEHHHHHH
notes: Purified monomer from a pET22b vector in E. coli (IMAC, SEC); The tag is not described
B2: 3B5 mutant (2u2f mutant from Cluster 3) (designed binder)
chain: AHKLFIGGLPADGDDDQVKELLTSFGPLKAFNLVKDSATGLSKGYAFAEYVDINVTDQAIAGLNGFATSRFSLLVQRASVGAKNADYKDDDDKLEHHHHHH
notes: as for B1
B3: 1H2 mutant (2u2f mutant from Cluster 1) (designed binder)
chain: AHKLFIGGLPVDYNDDQVKELLTSFGPLKAFNLVKDSATGLSKGYAFAEYVDINVTDQAIAGLNGSGSRIRALLVQRASVGAKNADYKDDDDKLEHHHHHH
notes: as for B1
B4: 4H5 mutant (2u2f mutant from Cluster 4) (designed binder)
chain: AHKLFIGGLPDYYGDDQVKELLTSFGPLKAFNLVKDSATGLSKGYAFAEYVDINVTDQAIAGLNGRFYGTATLLVQRASVGAKNADYKDDDDKLEHHHHHH
notes: as for B1

This assay deals with T1, Galectin-3 (UniProt P17931 1-250, limits assumed).
T1 construct: Immobilized on magnetic particles for panning and on ELISA wells via NeutrAvidin; also called Gal-3; target Galectin-3
T1 sequence (P17931 whole entry): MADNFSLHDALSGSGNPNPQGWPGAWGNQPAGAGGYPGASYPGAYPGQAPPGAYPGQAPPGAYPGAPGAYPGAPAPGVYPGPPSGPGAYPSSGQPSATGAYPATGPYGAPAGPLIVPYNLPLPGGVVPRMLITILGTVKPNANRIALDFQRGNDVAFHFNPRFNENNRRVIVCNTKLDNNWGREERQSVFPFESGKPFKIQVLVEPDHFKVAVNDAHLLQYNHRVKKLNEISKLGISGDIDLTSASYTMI
The assay is described as follows: ELISA, eight 2-fold dilutions starting from 1.5 uM.
As to B1, the EC50 was 92.5 nM. The result for B2 reads 277 nM; that for B3, 79.9 nM.

With B4, the EC50 turned out to be 201 nM.
